Laboratory results taken from the supplement of paper PMC10724198.
± gives the standard deviation of the averaged measurements.

Assays:
Saccharomyces cerevisiae [1] = assay: protein stability index of tFT-peptide fusion (C-terminal peptide) (PSI (0-1 scale)); higher = more stable (slower turnover)
Experimental: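 MPS profiling in S. cerevisiae of the tFT-X12 degron library: putative degron peptides plus stable controls, 12 aa, fused to the C-terminus of a sfGFP-mCherry timer. Cells are FACS-sorted into 8 mCherry/sfGFP bins and deep-sequenced. PSI runs from 0 (unstable) to 1 (stable). Backgrounds are wild type, das1Δ and doa10Δ at 30 °C, and wild type, das1Δ, cdc34-1 and cdc53-1 at 37 °C; 2-3 technical replicates each.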

Saccharomyces cerevisiae [2] = assay: as above; details: genetic background: wild type; temperature: 30 C
[3] = genetic background: cdc34-1, temperature: 37 C
[4] = genetic background: cdc53-1, temperature: 37 C
[5] = genetic background: das1 deletion, temperature: 30 C
[6] = genetic background: das1 deletion, temperature: 37 C
[7] = genetic background: doa10 deletion, temperature: 30 C
[8] = genetic background: wild type, temperature: 30 C
[9] = genetic background: wild type, temperature: 37 C
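Further: PSI is a weighted mean of sequencing reads over stability bins, variants kept only with over 10 reads, mCherry proximal and sfGFP distal, peptide attached via GGGS linker.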

Sequence | protein stability index (Saccharomyces cerevisiae [1]; [3]) | protein stability index (Saccharomyces cerevisiae [1]; [4]) | protein stability index (Saccharomyces cerevisiae [1]; [5]) | protein stability index (Saccharomyces cerevisiae [1]; [6]) | protein stability index (Saccharomyces cerevisiae [1]; [7]) | protein stability index (Saccharomyces cerevisiae [1]; [8]) | protein stability index (Saccharomyces cerevisiae [1]; [9]) | protein stability index (Saccharomyces cerevisiae [2])
IVEVNCILMWIF | 0.423 ± 0.024 | 0.489 ± 0.026 | 0.365 ± 0.021 | 0.532 ± 0.029 | 0.345 ± 0.037 | 0.369 ± 0.041 | 0.469 ± 0.044 | 0.4398 ± 0.00029
IWIHSVGVECTS | 0.487 ± 0.011 | 0.494 ± 0.033 | 0.359 ± 0.036 | 0.544 ± 0.0068 | 0.315 ± 0.0044 | 0.358 ± 0.032 | 0.5186 ± 0.005 | 0.486 ± 0.019
CVEACVWYNAGL | 0.745 ± 0.046 | 0.782 ± 0.024 | 0.662 ± 0.024 | 0.774 ± 0.027 | 0.6577 ± 0.004 | 0.687 ± 0.031 | 0.764 ± 0.015 | 0.7382 ± 0.0062
PVLSLPPLSSPP | 0.682 ± 0.032 | 0.7318 ± 0.0057 | 0.682 ± 0.0089 | 0.7244 ± 0.0058 | 0.691 ± 0.034 | 0.691 ± 0.02 | 0.7044 ± 0.0064 | 0.7068 ± 0.0043
AGGLLIGSVGVG | 0.434 ± 0.013 | 0.468 ± 0.0094 | 0.4439 ± 0.0038 | 0.468 ± 0.0066 | 0.4523 ± 0.0042 | 0.4436 ± 0.0017 | 0.4604 ± 0.0028 | 0.45 ± 0.008
WLWYSPIAFTAL | 0.632 ± 0.014 | 0.764 ± 0.041 | 0.64 ± 0.016 | 0.778 ± 0.02 | 0.11 ± 0.019 | 0.107 ± 0.0089 | 0.163 ± 0.0073 | 0.179 ± 0.015
DWCACFFILLLA | 0.0391 ± 0.0052 | 0.0382 ± 0.012 | 0.117 ± 0.026 | 0.17 ± 0.016 | 0.145 ± 0.0095 | 0.0983 ± 0.018 | 0.111 ± 0.028 | 0.152 ± 0.019
CSKGLSILLLLL | 0.636 ± 0.055 | 0.672 ± 0.028 | 0.469 ± 0.021 | 0.634 ± 0.028 | 0.301 ± 0.018 | 0.321 ± 0.034 | 0.53 ± 0.012 | 0.41 ± 0.0064
LFCVCFYGRIFL | 0.443 ± 0.017 | 0.556 ± 0.038 | 0.335 ± 0.028 | 0.526 ± 0.018 | 0.328 ± 0.018 | 0.334 ± 0.022 | 0.5 ± 0.011 | 0.423 ± 0.0066
FIGVLVFSWLLF | 0.244 ± 0.029 | 0.371 ± 0.0074 | 0.241 ± 0.035 | 0.412 ± 0.021 | 0.215 ± 0.0034 | 0.235 ± 0.024 | 0.381 ± 0.021 | 0.37 ± 0.03
LYRSLLLSFCVL | 0.593 ± 0.023 | 0.6381 ± 0.00019 | 0.528 ± 0.011 | 0.639 ± 0.018 | 0.407 ± 0.031 | 0.411 ± 0.022 | 0.521 ± 0.012 | 0.483 ± 0.0052
FPTLHPAIPYLC | 0.643 ± 0.013 | 0.672 ± 0.057 | 0.616 ± 0.017 | 0.7116 ± 0.0013 | 0.237 ± 0.01 | 0.282 ± 0.022 | 0.468 ± 0.02 | 0.458 ± 0.042
RKRKKISEIIAI | 0.664 ± 0.054 | 0.708 ± 0.075 | 0.589 ± 0.036 | 0.69 ± 0.039 | 0.519 ± 0.037 | 0.572 ± 0.041 | 0.637 ± 0.003 | 0.52 ± 0.047
YLGLSAVAILWM | 0.538 ± 0.041 | 0.533 ± 0.02 | 0.414 ± 0.029 | 0.563 ± 0.014 | 0.381 ± 0.011 | 0.412 ± 0.018 | 0.529 ± 0.011 | 0.4784 ± 0.0037
FYFLSFLLLLSP | 0.143 ± 0.0096 | 0.132 ± 0.021 | 0.182 ± 0.024 | 0.294 ± 0.0094 | 0.223 ± 0.0038 | 0.156 ± 0.035 | 0.245 ± 0.024 | 0.176 ± 0.012
FFLLLVSVLSGW | 0.177 ± 0.035 | 0.255 ± 0.047 | 0.198 ± 0.017 | 0.3301 ± 0.00052 | 0.152 ± 0.02 | 0.185 ± 0.029 | 0.2942 ± 0.00091 | 0.316 ± 0.038
LSLVIFIFLYCR | 0.0945 ± 0.016 | 0.123 ± 0.037 | 0.179 ± 0.0092 | 0.234 ± 0.0042 | 0.27 ± 0.033 | 0.169 ± 0.023 | 0.205 ± 0.027 | 0.227 ± 0.053
TYYPLNRSRFIG | 0.5858 ± 0.0048 | 0.7261 ± 0.0025 | 0.635 ± 0.035 | 0.7616 ± 0.0049 | 0.108 ± 0.0073 | 0.139 ± 0.0058 | 0.241 ± 0.023 | 0.277 ± 0.15
YLAGPLARLRKF | 0.68 ± 0.046 | 0.7579 ± 0.0021 | 0.752 ± 0.027 | 0.738 ± 0.0093 | 0.716 ± 0.037 | 0.749 ± 0.041 | 0.735 ± 0.013 | 0.751 ± 0.037
VVAALTPLITVA | 0.0655 ± 0.023 | 0.084 ± 0.0042 | 0.183 ± 0.021 | 0.202 ± 0.0041 | 0.151 ± 0.011 | 0.179 ± 0.024 | 0.138 ± 0.0061 | 0.261 ± 0.04

Sequence | protein stability index (Saccharomyces cerevisiae [1]; [3]) | protein stability index (Saccharomyces cerevisiae [1]; [4]) | protein stability index (Saccharomyces cerevisiae [1]; [5]) | protein stability index (Saccharomyces cerevisiae [1]; [6]) | protein stability index (Saccharomyces cerevisiae [1]; [7]) | protein stability index (Saccharomyces cerevisiae [1]; [8]) | protein stability index (Saccharomyces cerevisiae [1]; [9]) | protein stability index (Saccharomyces cerevisiae [2])
LWERRSRQLTMF | 0.645 ± 0.056 | 0.7649 ± 0.003 | 0.687 ± 0.014 | 0.7401 ± 0.0057 | 0.173 ± 0.011 | 0.166 ± 0.018 | 0.33 ± 0.026 | 0.263 ± 0.013
VRSELHINSFIH | 0.656 ± 0.0076 | 0.767 ± 0.017 | 0.682 ± 0.017 | 0.741 ± 0.017 | 0.499 ± 0.047 | 0.501 ± 0.015 | 0.681 ± 0.025 | 0.53 ± 0.054
NFSALECKVQLT | 0.747 ± 0.076 | 0.727 ± 0.018 | 0.625 ± 0.018 | 0.725 ± 0.017 | 0.647 ± 0.042 | 0.653 ± 0.026 | 0.689 ± 0.0082 | 0.75 ± 0.052
ILLYCVLIDPYS | 0.203 ± 0.008 | 0.2634 ± 0.0013 | 0.221 ± 0.043 | 0.352 ± 0.0093 | 0.219 ± 0.011 | 0.229 ± 0.025 | 0.361 ± 0.057 | 0.344 ± 0.032
CLRVSFFFWLFA | 0.465 ± 0.017 | 0.562 ± 0.0068 | 0.392 ± 0.041 | 0.553 ± 0.0073 | 0.224 ± 0.0084 | 0.263 ± 0.017 | 0.424 ± 0.0084 | 0.351 ± 0.016
VELRNCYLLVKA | 0.204 ± 0.0059 | 0.282 ± 0.013 | 0.222 ± 0.037 | 0.381 ± 0.013 | 0.178 ± 0.018 | 0.22 ± 0.032 | 0.34 ± 0.0065 | 0.327 ± 0.037
IYNIIFKYRTIT | 0.525 ± 0.036 | 0.581 ± 0.014 | 0.575 ± 0.0086 | 0.661 ± 0.073 | 0.0671 ± 0.0022 | 0.0987 ± 0.019 | 0.118 ± 0.016 | 0.127 ± 0.084
LPLHPHRSRYLV | 0.593 ± 0.033 | 0.691 ± 0.018 | 0.674 ± 0.019 | 0.702 ± 0.031 | 0.101 ± 0.015 | 0.0982 ± 0.0075 | 0.203 ± 0.02 | 0.21 ± 0.021
LCARVCITFNIV | 0.517 ± 0.033 | 0.578 ± 0.054 | 0.458 ± 0.013 | 0.4975 ± 0.0038 | 0.4011 ± 0.004 | 0.438 ± 0.035 | 0.481 ± 0.014 | 0.457 ± 0.016
RSFPCITVFIRA | 0.514 ± 0.011 | 0.469 ± 0.029 | 0.328 ± 0.036 | 0.50913 ± 0.00021 | 0.325 ± 0.03 | 0.323 ± 0.023 | 0.5088 ± 0.0019 | 0.4235 ± 0.0035
KLKTSHILIKQT | 0.665 ± 0.059 | 0.729 ± 0.0099 | 0.606 ± 0.029 | 0.716 ± 0.024 | 0.1562 ± 0.0013 | 0.223 ± 0.033 | 0.452 ± 0.011 | 0.3668 ± 0.0036
LLYPSKFCITAI | 0.506 ± 0.024 | 0.559 ± 0.03 | 0.413 ± 0.032 | 0.575 ± 0.016 | 0.248 ± 0.007 | 0.272 ± 0.027 | 0.431 ± 0.0044 | 0.374 ± 0.016
EMISRNVFTYLS | 0.684 ± 0.037 | 0.755 ± 0.012 | 0.619 ± 0.034 | 0.773 ± 0.023 | 0.394 ± 0.034 | 0.42 ± 0.023 | 0.6266 ± 0.0049 | 0.473 ± 0.03
GYRYMWLWRLSA | 0.544 ± 0.027 | 0.706 ± 0.026 | 0.665 ± 0.036 | 0.762 ± 0.028 | 0.148 ± 0.0028 | 0.143 ± 0.032 | 0.235 ± 0.013 | 0.178 ± 0.095
MVVSLVLCFWAS | 0.248 ± 0.026 | 0.331 ± 0.069 | 0.257 ± 0.024 | 0.409 ± 0.016 | 0.222 ± 0.0091 | 0.244 ± 0.018 | 0.414 ± 0.055 | 0.255 ± 0.045
NFTDMGRSLYIN | 0.592 ± 0.056 | 0.788 ± 0.018 | 0.663 ± 0.015 | 0.775 ± 0.0087 | 0.166 ± 0.0031 | 0.208 ± 0.054 | 0.434 ± 0.024 | 0.279 ± 0.057
SRKRIVALMLSG | 0.628 ± 0.012 | 0.678 ± 0.061 | 0.615 ± 0.029 | 0.686 ± 0.032 | 0.153 ± 0.013 | 0.18 ± 0.02 | 0.273 ± 0.0082 | 0.292 ± 0.013
AKVSFYALARQY | 0.665 ± 0.017 | 0.715 ± 0.018 | 0.636 ± 0.018 | 0.726 ± 0.016 | 0.323 ± 0.0065 | 0.355 ± 0.025 | 0.563 ± 0.0078 | 0.414 ± 0.036
LGRYHPWLLFLC | 0.261 ± 0.011 | 0.451 ± 0.021 | 0.457 ± 0.035 | 0.614 ± 0.0077 | 0.0687 ± 0.016 | 0.0711 ± 0.025 | 0.104 ± 0.0076 | 0.114 ± 0.027
